Molecular target: the molecule itself
Experiment: cryo-EM imaging with calculated diffraction patterns (layer lines); tubulin or microtubules with LRRK2^RCKW (WT or mutant), with or without MLi-2; layer lines in diffraction patterns calculated from images of single filaments, 2D class averages

| Protein | binding result |
| --- | --- |
| LRRK2^RCKW-S2345D (domain or fragment, human, LRRK2, human, carboxy-terminal catalytic half with the ROC, COR, kinase and WD40 domains; also called p.S2345D; WD40 dimerization interface mutant; source: Sf9 insect cells, baculovirus, purified (Ni-NTA, SP Sepharose, TEV cleavage, second Ni-NTA, S200 gel filtration); not shown: His6-Z, N-terminal, cleaved) KKAVPYNRMKLMIVGNTGSGKTTLLQQLMKTKKSDLGMQSATVGIDVKDWPIQIRDKRKRDLVLNVWDFAGREEFYSTHPHFMTQRALYLAVYDLSKGQAEVDAMKPWLFNIKARASSSPVILVGTHLDVSDEKQRKACMSKITKELLNKRGFPAIRDYHFVNATEESDALAKLRKTIINESLNFKIRDQLVVGQLIPDCYVELEKIILSERKNVPIEFPVIDRKRLLQLVRENQLQLDENELPHAVHFLNESGVLLHFQDPALQLSDLYFVEPKWLCKIMAQILTVKVEGCPKHPKGIISRRDVEKFLSKKRKFPKNYMSQYFKLLEKFQIALPIGEEYLLVPSSLSDHRPVIELPHCENSEIIIRLYEMPYFPMGFWSRLINRLLEISPYMLSGRERALRPNRMYWRQGIYLNWSPEAYCLVGSEVLDNHPESFLKITVPSCRKGCILLGQVVDHIDSLMEEWFPGLLEIDICGEGETLLKKWALYSFNDGEEHQKILLDDLMKKAEEGDLLVNPDQPRLTIPISQIAPDLILADLPRNIMLNNDELEFEQAPEFLLGDGSFGSVYRAAYEGEEVAVKIFNKHTSLRLLRQELVVLCHLHHPSLISLLAAGIRPRMLVMELASKGSLDRLLQQDKASLTRTLQHRIALHVADGLRYLHSAMIIYRDLKPHNVLLFTLYPNAAIIAKIADYGIAQYCCRMGIKTSEGTPGFRAPEVARGNVIYNQQADVYSFGLLLYDILTTGGRIVEGLKFPNEFDELEIQGKLPDPVKEYGCAPWPMVEKLIKQCLKENPQERPTSAQVFDILNSAELVCLTRRILLPKNVIVECMVATHHNSRNASIWLGCGHTDRGQLSFLDLNTEGYTSEEVADSRILCLALVHLPVEKESWIVSGTQSGTLLVINTEDGKKRHTLEKMTDSVTCLYCNSFSKQSKQKNFLLVGTADGKLAIFEDKTVKLKGAAPLKILNIGNVSTPLMCLSESTNSTERNVMWGGCGTKIFSFSNDFTIQKLIETRTSQLFDYAAFSDSNIITVVVDTALYIAKQNSPVVEVWDKKTEKLCGLIDCVHFLREVMVKENKESKHKMSYSGRVKTLCLQKNTALWIGTGGGHILLLDLSTRRLIRVIYNFCNSVRVMMTAQLGSLKNVMLVLGYNRKNTEGTQKQKEIQSCLTVWDINLPHEVQNLEKHIEVRKELAEKMRRTSVE | binds |
| LRRK2^RCKW-G2019S (domain or fragment, human, LRRK2, human, carboxy-terminal catalytic half with the ROC, COR, kinase and WD40 domains, with the PD-linked mutation p.G2019S; also called LRRK2^RCKW carrying p.G2019S; source: Sf9 insect cells, baculovirus, purified (Ni-NTA, SP Sepharose, TEV cleavage, second Ni-NTA, S200 gel filtration); not shown: His6-Z, N-terminal, cleaved) KKAVPYNRMKLMIVGNTGSGKTTLLQQLMKTKKSDLGMQSATVGIDVKDWPIQIRDKRKRDLVLNVWDFAGREEFYSTHPHFMTQRALYLAVYDLSKGQAEVDAMKPWLFNIKARASSSPVILVGTHLDVSDEKQRKACMSKITKELLNKRGFPAIRDYHFVNATEESDALAKLRKTIINESLNFKIRDQLVVGQLIPDCYVELEKIILSERKNVPIEFPVIDRKRLLQLVRENQLQLDENELPHAVHFLNESGVLLHFQDPALQLSDLYFVEPKWLCKIMAQILTVKVEGCPKHPKGIISRRDVEKFLSKKRKFPKNYMSQYFKLLEKFQIALPIGEEYLLVPSSLSDHRPVIELPHCENSEIIIRLYEMPYFPMGFWSRLINRLLEISPYMLSGRERALRPNRMYWRQGIYLNWSPEAYCLVGSEVLDNHPESFLKITVPSCRKGCILLGQVVDHIDSLMEEWFPGLLEIDICGEGETLLKKWALYSFNDGEEHQKILLDDLMKKAEEGDLLVNPDQPRLTIPISQIAPDLILADLPRNIMLNNDELEFEQAPEFLLGDGSFGSVYRAAYEGEEVAVKIFNKHTSLRLLRQELVVLCHLHHPSLISLLAAGIRPRMLVMELASKGSLDRLLQQDKASLTRTLQHRIALHVADGLRYLHSAMIIYRDLKPHNVLLFTLYPNAAIIAKIADYSIAQYCCRMGIKTSEGTPGFRAPEVARGNVIYNQQADVYSFGLLLYDILTTGGRIVEGLKFPNEFDELEIQGKLPDPVKEYGCAPWPMVEKLIKQCLKENPQERPTSAQVFDILNSAELVCLTRRILLPKNVIVECMVATHHNSRNASIWLGCGHTDRGQLSFLDLNTEGYTSEEVADSRILCLALVHLPVEKESWIVSGTQSGTLLVINTEDGKKRHTLEKMTDSVTCLYCNSFSKQSKQKNFLLVGTADGKLAIFEDKTVKLKGAAPLKILNIGNVSTPLMCLSESTNSTERNVMWGGCGTKIFSFSNDFTIQKLIETRTSQLFSYAAFSDSNIITVVVDTALYIAKQNSPVVEVWDKKTEKLCGLIDCVHFLREVMVKENKESKHKMSYSGRVKTLCLQKNTALWIGTGGGHILLLDLSTRRLIRVIYNFCNSVRVMMTAQLGSLKNVMLVLGYNRKNTEGTQKQKEIQSCLTVWDINLPHEVQNLEKHIEVRKELAEKMRRTSVE | binds |
